For orientation: Kd means the equilibrium constant for the complex coming apart. High values mean weaker binding, low ones tighter binding.

Results on 7 molecules are retold here after article PMC7526519 (2020).

Residue numbers refer to the chain shown, from its start.

B1: goat ACE2 ectodomain fused with mouse Fc (Fc fusion)
chain: QSTTEEQAKTFLEKFNHEAEDLSYQSSLASWNYNTNITDENVQKMNEARAKWSAFYEEQSRMARTYSLEEIQNLTLKRQLKALQHSGTSVLSAEKSKRLNMILNKMSTIYSTGKVLDPNTQECLALEPGLDDIMENSRDYNRRLWAWEGWRAEVGKQLRPLYEEYVVLENEMARANNYEDYGDYWRGDYEVTGAGDYDYSRDQLMKDVERTFAEIKPLYEQLHAYVRAKLMNTYPSYISPTGCLPAHLLGDMWGRFWTNLYSLTVPFEHKPSIDVTEKMKNQSWDAERIFKEAEKFFVSIGLPYMTQGFWNNSMLTEPGDGRKVVCHPTAWDLGKGDFRIKMCTKVTMDDFLTAHHEMGHIQYDMAYATQPYLLRNGANEGFHEAVGEIMSLSAATPHYLKALGLLAPDFYEDNETEINFLLKQALTIVGTLPFTYMLEKWRWMVFKGEIPKQQWMEKWWEMKREIVGVVEPLPHDETYCDPACLFHVAEDYSFIRYYTRTIYQFQFHEALCKTAKHEGALFKCDISNSTEAGQRLLQMLRLGKSEPWTLALENIVGIKTMDVKPLLNYFEPLFTWLKEQNRNSFVGWSTEWTPYSDQSIKVRISLKSALGENAYEWNDNEMYLFRSSVAYAMRKYFLEDRNETIPFGEENVWVSDKKPRISFKFFVTSPNNVSDIIPRTEVENAIRLCRDRINDAFQLDDNSLEFLGIQPTLRPPYEPPVT
B2: sheep ACE2 ectodomain fused with mouse Fc (Fc fusion)
chain: B1 chain with E6G, M101T, A213E, N232D, N311D, E639K, D640E
B3: rabbit ACE2 ectodomain fused with mouse Fc (Fc fusion)
chain: QSTIEELAKTFLEKFNQEAEDLSYQSALASWDYNTNITEENVQKMNDAEAKWSAFYEEQSKLAKTYPSQEVQNLTVKRQLQALQQSGSSALSADKSKQLNTILSTMSTIYSTGKVCNQSNPQECFLLEPGLDEIMAKSTDYNERLWAWEGWRSVVGKQLRPLYEEYVVLKNEMARANNYEDYGDYWRADYEAEGADGYDYSRSQLIDDVERTFSEIKPLYEQLHAFVRTKLMDAYPSRISPTGCLPAHLLGDMWGRFWTNLYSLTVPFGQKPNIDVTDTMVNQGWDAERIFKEAEKFFVSVGLPSMTQGFWENSMLTEPGDGRKVVCHPTAWDLGKGDFRIKMCTKVTMDNFLTAHHEMGHIQYDMAYATQPFLLRNGANEGFHEAVGEIMSLSAATPEHLKSIGLLPYDFHEDNETEINFLLKQALTIVGTLPFTYMLEKWRWMVFKGEIPKEQWMQKWWEMKREIVGVVEPMPHDETYCDPAALFHVANDYSFIRYYTRTIYQFQFQEALCQAAQHEGPLHKCDISNSTEAGQKLLNMLRLGRSEPWTLALENVVGAKNMDVRPLLNYFEPLFTWLKEQNRNSFVGWSTEWTPYADQSIKVRISLKTALGDQAYEWNDSEMYLFRSSVAYAMRKYFSEVKNQTILFGEEDVRVSDLKPRISFNFFVTAPNNVNDIIPRNEVEEAISMSRSRINDIFRLDDNSLEFVGIQPTLEPPYESPVP
B4: raccoon dog ACE2 ectodomain fused with mouse Fc (Fc fusion)
chain: QSTEDLVNTFLEKFNYEAEELSYQSSLASWNYNTNITDENLQKMNNAGAKWSAFYEEQSKLAKTYPLEEIQDSTVKRQLRALQHSGSSVLSADKNQRLNTILNSMSTIYSTGKACNPSNPQECLLLEPGLDDIMENSKDYNERLWAWEGWRSEVGKQLRPLYEEYVALKNEMARANNYEDYGDYWRGDYEEEWENGYNYSRNQLIDDVEHTFTQIMPLYQHLHAYVRTKLMDTYPSYISPTGCLPAHLLGDMWGRFWTNLYPLTVPFGQKPNIDVTNAMVNQSWDARKIFKEAEKFFVSVGLPNMTQGFWENSMLTEPSDSWKVVCHPTAWDLGRGDFRIKMCTKVTMDDFLTAHHEMGHIQYDMAYAAQPFLLRNGANEGFHEAVGEIMSLSAATPNHLKNIGLLPPSFFEDSETEINFLLKQALTIVGTLPFTYMLEKWRWMVFKGEIPKDQWMKTWWEMKRNIVGVVEPVPHDETYCDPASLFHVANDYSFIRYYTRTIYQFQFQEALCQIAKHEGPLHKCDISNSSEAGQKLLEMLKLGKSKPWTYALEIVVGAKNMDVRPLLNYFEPLFTWLKEQNRNSFVGWNTDWSPYADQSIKVRISLKSALGEKAYEWNNNEMYLFRSSIAYAMRQYFSEVKNQTIPFVEDNVWVSDLKPRISFNFFVTSPGNVSDIIPRTEVEEAIRMYRSRINDVFRLDDNSLEFLGIQPTLGPPYEPPVT
B5: pig ACE2 ectodomain fused with mouse Fc (Fc fusion)
chain: QSTTEELAKTFLEKFNLEAEDLAYQSSLASWNYNTNITDENIQKMNDARAKWSAFYEEQSRIAKTYPLDEIQTLILKRQLQALQQSGTSGLSADKSKRLNTILNTMSTIYSSGKVLDPNNPQECLVLEPGLDEIMENSKDYSRRLWAWESWRAEVGKQLRPLYEEYVVLENEMARANNYEDYGDYWRGDYEVTGTGDYDYSRNQLMEDVERTFAEIKPLYEHLHAYVRAKLMDAYPSRISPTGCLPAHLLGDMWGRFWTNLYPLTVPFGEKPSIDVTEAMVNQSWDAIRIFEEAEKFFVSIGLPNMTQGFWNNSMLTEPGDGRKVVCHPTAWDLGKGDFRIKMCTKVTMDDFLTAHHEMGHIQYDMAYAIQPYLLRNGANEGFHEAVGEIMSLSAATPHYLKALGLLPPDFYEDSETEINFLLKQALTIVGTLPFTYMLEKWRWMVFKGEIPKEQWMQKWWEMKREIVGVVEPLPHDETYCDPACLFHVAEDYSFIRYYTRTIYQFQFHEALCRTAKHEGPLYKCDISNSTEAGQKLLQMLSLGKSEPWTLALENIVGVKTMDVKPLLSYFEPLLTWLKAQNGNSSVGWNTDWTPYADQSIKVRISLKSALGKEAYEWNDNEMYLFRSSIAYAMRNYFSSAKNETIPFGAEDVWVSDLKPRISFNFFVTSPANMSDIIPRSDVEKAISMSRSRINDAFRLDDNTLEFLGIQPTLGPPDEPPVT
B6: bovine ACE2 ectodomain fused with mouse Fc (Fc fusion)
chain: QSTTEEQAKTFLEKFNHEAEDLSYQSSLASWNYNTNITDENVQKMNEARAKWSAFYEEQSRMAKTYSLEEIQNLTLKRQLKALQHSGTSALSAEKSKRLNTILNKMSTIYSTGKVLDPNTQECLALEPGLDDIMENSRDYNRRLWAWEGWRAEVGKQLRPLYEEYVVLENEMARANNYEDYGDYWRGDYEVTGAGDYDYSRDQLMKDVERTFAEIKPLYEQLHAYVRAKLMHTYPSYISPTGCLPAHLLGDMWGRFWTNLYSLTVPFEHKPSIDVTEKMENQSWDAERIFKEAEKFFVSISLPYMTQGFWDNSMLTEPGDGRKVVCHPTAWDLGKGDFRIKMCTKVTMDDFLTAHHEMGHIQYDMAYAAQPYLLRNGANEGFHEAVGEIMSLSAATPHYLKALGLLAPDFHEDNETEINFLLKQALTIVGTLPFTYMLEKWRWMVFKGEIPKQQWMEKWWEMKREIVGVVEPLPHDETYCDPACLFHVAEDYSFIRYYTRTIYQFQFHEALCKTAKHEGALFKCDISNSTEAGQRLLQMLRLGKSEPWTLALENIVGIKTMDVKPLLNYFEPLFTWLKEQNRNSFVGWSTEWTPYSDQSIKVRISLKSALGENAYEWNDNEMYLFQSSVAYAMRKYFSEARNETVLFGEDNVWVSDKKPRISFKFFVTSPNNVSDIIPRTEVENAIRLSRDRINDVFQLDDNSLEFLGIQPTLGPPYEPPVT
B7: monkey ACE2 ectodomain fused with mouse Fc (Fc fusion)
chain: QSTIEEQAKTFLDKFNHEAEDLFYQSSLASWNYNTNITEENVQNMNNAGEKWSAFLKEQSTLAQMYPLQEIQNLTVKLQLQALQQNGSSVLSEDKSKRLNTILNTMSTIYSTGKVCNPNNPQECLLLDPGLNEIMEKSLDYNERLWAWEGWRSEVGKQLRPLYEEYVVLKNEMARANHYKDYGDYWRGNYEVNGVDGYDYNRDQLIEDVERTFEEIKPLYEHLHAYVRAKLMNAYPSYISPTGCLPAHLLGDMWGRFWTNLYSLTVPFGQKPNIDVTDAMVNQAWNAQRIFKEAEKFFVSVGLPNMTQGFWENSMLTDPGNVQKVVCHPTAWDLGKGDFRIIMCTKVTMDDFLTAHHEMGHIQYDMAYAAQPFLLRNGANEGFHEAVGEIMSLSAATPKHLKSIGLLSPDFQEDNETEINFLLKQALTIVGTLPFTYMLEKWRWMVFKGEIPKDQWMKKWWEMKREIVGVVEPVPHDETYCDPASLFHVSNDYSFIRYYTRTLYQFQFQEALCQAAKHEGPLHKCDISNSTEAGQKLLNMLKLGKSEPWTLALENVVGAKNMNVRPLLNYFEPLFTWLKDQNKNSFVGWSTDWSPYADQSIKVRISLKSALGDKAYEWNDNEMYLFRSSVAYAMRTYFLEIKHQTILFGEEDVRVADLKPRISFNFYVTAPKNVSDIIPRTEVEEAIRISRSRINDAFRLNDNSLEFLGIQTTLAPPYQSPVT

The first assay addresses SARS-CoV-2 receptor binding domain (RBD), His-tagged (SARS-CoV-2, UniProt P0DTC2 319-541). The assay is described as follows: SPR. (In general: In SPR one partner is held on a chip, and binding of the other changes the refractive index at the surface.)
Turning to B1, the Kd is 157 nM.

Take B2: binding was characterised by a dissociation constant (Kd) of 137 nM.

B3 returned a Kd of 76.2 nM.

B4 came in with a Kd of 96.4 nM.

Consider B5, for which the affinity, expressed as Kd, was 47.6 nM.

Molecule B6 returned a Kd of 73.7 nM.

B7 returned a Kd of 21.7 nM.

A further assay deals with SARS-CoV receptor binding domain (RBD), His-tagged (SARS-CoV, UniProt P59594 306-527). The assay is described as follows: SPR.
B1 showed a Kd of 308 nM.

The molecule B2 registered a Kd of 157 nM.

For the molecule B3, the affinity, expressed as Kd, was 74.8 nM.

With B4, the Kd amounted to 179 nM.

For the molecule B5, the Kd turned out to be 35.8 nM.

In turn, B6 showed a Kd of 89.8 nM.

B7 registered a Kd of 69.1 nM.
